In patent US20050175608A1 (Kyowa Kirin, published 2005):

T1: compound 1 as a partial peptide of FGF-8 with the C terminal labeled with biotin (human, C terminal labeled with biotin)
T1 construct: Captured on Sensor Chip SA (35 RU) for BIAcore 2000; also called compound 1 labeled with biotin; FGF-8 peptide
T1 peptide: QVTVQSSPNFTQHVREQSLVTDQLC

T2: BSA-compound 1 (conjugate of the human FGF-8 partial peptide compound 1 with bovine serum albumin) (human, not fully specified; C-terminal cysteine conjugated to BSA through SMCC)
T2 construct: Coated on ELISA plates; the BSA carrier is not written as a chain
T2 peptide: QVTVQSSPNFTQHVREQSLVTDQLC

T3: FGF-8 (manufactured by R & D) (Homo sapiens (Human), UniProt P55075 23-215)
T3 sequence: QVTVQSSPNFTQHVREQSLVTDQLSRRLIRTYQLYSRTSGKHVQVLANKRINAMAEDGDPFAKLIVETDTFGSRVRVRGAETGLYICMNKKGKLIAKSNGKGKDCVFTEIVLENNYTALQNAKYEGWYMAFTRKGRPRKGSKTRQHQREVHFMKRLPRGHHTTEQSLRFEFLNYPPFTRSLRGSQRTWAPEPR


Key:
[1] = biological target: T1, compound 1 as a partial peptide of …; assay: BIAcore 2000, biotin-labeled compound 1 on SA chip (35 RU), antibody 16.7 µg/mL; dissociation hardly observed
Description: (§1) In order to examine the FGF-8 binding activity of the anti-FGF-8 neutralizing CDR-grafted antibodies obtained in 5. of Reference Example 3, the FGF-8 binding activity of the various anti-FGF-8 neutralizing CDR-grafted antibodies was measured and compared through BIAcore 2000 using compound 1 as a partial peptide of FGF-8 with the C terminal labeled with biotin in the following manner. The anti-FGF-8 neutralizing chimeric antibody KM3034 derived from CHO/DG44 cells obtained in 3. (1) of Reference Example 1 was used as a positive control.
(§2) HBS-EP was used as a sample diluent and a buffer during measurement. First, Sensor Chip SA (manufactured by BIACORE) was installed, and 5 μL of compound 1 labeled with biotin which had been adjusted to 0.05 μg/mL was added at a flow rate of 5 μL/min. Then, 5 μL of a 10 mmol/L glycine-hydrochloride solution (pH 1.5) was added twice continuously to wash the tip surface. The immobilization amount of the FGF-8 peptide was 35 RU.
60 μL of each of the antibody solutions was added to an FGF-8 peptide immobilized flow cell at a flow rate of 20 μL/min, and the dissociation reaction was then monitored for 3 minutes. After the dissociation reaction, 20 μL of 10 mmol/L glycine-hydrochloride solution (pH 1.5) was added twice continuously to regenerate the chip surface. This cycle was performed on the antibody solution at various concentrations (from 50 to 1.85 μg/mL) to obtain sensor grams at various concentrations. The sensor grams of the respective antibodies were converted to sensor grams of specific reactions by deduceing a sensor gram obtained using the chimeric antibody KM871 to GD3 as a negative control.

[2] = biological target: T2, BSA-compound 1 (conjugate of the human …); assay: ELISA, plate coated with BSA-compound 1
[3] = biological target: T1, compound 1 as a partial peptide of …; assay: BIAcore 2000, biotin-labeled compound 1 on SA chip, antibody 16.7 µg/mL; dissociation hardly observed
Description: as §1, §2
60 μL of each of the antibody solutions was added to an FGF-8 peptide immobilized flow cell at a flow rate of 20 μL/min, and the dissociation reaction was then monitored for 3 minutes. After the dissociation reaction, 20 μL of 10 mmol/L glycine-hydrochloride solution (pH 1.5) was added twice continuously to regenerate the chip surface. […]

[4] = biological target: T3, FGF-8 (manufactured by R & D); assay: cell-based or functional assay

Row | binding result [1] | Binder | other results
1 | binds | anti-FGF-8 neutralizing CDR-grafted antibody HV0LV3-1/CHO (antibody, V domains shown, HV.0 + LV.3-1; also called KM8036) VH: QVQLVQSGAEVKKPGASVKVSCKASGYTFTDYYLNWVRQAPGQGLEWMGEIDPGSDSIYYNENLEGRVTITADTSTSTAYMELSSLRSEDTAVYYCARYGYSRYDVRFVYWGQGTLVTVSS VL: DVVMTQSPLSLPVTPGEPASISCRSSQSLVHSNGRTYLEWYLQKPGQSPQVLIYKVSNRISGVPDRFSGSGSGTDFTLKISRVEAEDVGVYFCFQGSHVPYTFGQGTKVEIK | –
2 | binds | anti-FGF-8 neutralizing chimeric antibody KM3034 (antibody, V domains shown, expressed in CHO/DG44 cells; also called human chimeric antibody KM3034) VH: QVQLQQSGAEVARPGASVKLSCKASGYTFTDYYLNWVKQRSGQGLEWIGEIDPGSDSIYYNENLEGRATLTADKSSSTAYMQLNSLTSEDSAVYFCARYGYSRYDVRFVYWGQGTLVTVST VL: DVLMTQTPLSLPVSLGDQASISCRSSQSLVHSNGRTYLEWYLQKPGQSPKVLIYKVSNRISGVPDRFSGSGSGTDFTLKISRVEAEDLGVYFCFQGSHVPYTFGGGTKLEIK | –
3 | – | anti-FGF-8 neutralizing CDR-grafted antibody HV0LV6 (antibody, V domains shown, HV.0 + LV.6; YB2/0 cell-derived; also called KM8037) VH: QVQLVQSGAEVKKPGASVKVSCKASGYTFTDYYLNWVRQAPGQGLEWMGEIDPGSDSIYYNENLEGRVTITADTSTSTAYMELSSLRSEDTAVYYCARYGYSRYDVRFVYWGQGTLVTVSS VL: DVVMTQSPLSLPVSLGEPASISCRSSQSLVHSNGRTYLEWYLQKPGQSPKVLIYKVSNRISGVPDRFSGSGSGTDFTLKISRVEAEDVGVYFCFQGSHVPYTFGQGTKVEIK | binding result [2]: binds
4 | – | anti-FGF-8 neutralizing CDR-grafted antibody HV0LV0 (antibody, V domains shown, HV.0 + LV.0) VH: QVQLVQSGAEVKKPGASVKVSCKASGYTFTDYYLNWVRQAPGQGLEWMGEIDPGSDSIYYNENLEGRVTITADTSTSTAYMELSSLRSEDTAVYYCARYGYSRYDVRFVYWGQGTLVTVSS VL: DIVMTQSPLSLPVTPGEPASISCRSSQSLVHSNGRTYLEWYLQKPGQSPQLLIYKVSNRISGVPDRFSGSGSGTDFTLKISRVEAEDVGVYYCFQGSHVPYTFGQGTKVEIK | binding result [2]: binds
5 | binds | anti-FGF-8 neutralizing CDR-grafted antibody HV0LV0/CHO (antibody, V domains shown, HV.0 + LV.0; CHO/DG44 cell-derived) VH: QVQLVQSGAEVKKPGASVKVSCKASGYTFTDYYLNWVRQAPGQGLEWMGEIDPGSDSIYYNENLEGRVTITADTSTSTAYMELSSLRSEDTAVYYCARYGYSRYDVRFVYWGQGTLVTVSS VL: DIVMTQSPLSLPVTPGEPASISCRSSQSLVHSNGRTYLEWYLQKPGQSPQLLIYKVSNRISGVPDRFSGSGSGTDFTLKISRVEAEDVGVYYCFQGSHVPYTFGQGTKVEIK | –
6 | – | anti-FGF-8 neutralizing CDR-grafted antibody HV6LV6 (antibody, V domains shown, HV.6 + LV.6) VH: QVQLVQSGAEVARPGASVKVSCKASGYTFTDYYLNWVRQRSGQGLEWIGEIDPGSDSIYYNENLEGRVTITADTSTSTAYMELSSLRSEDTAVYFCARYGYSRYDVRFVYWGQGTLVTVSS VL: DVVMTQSPLSLPVSLGEPASISCRSSQSLVHSNGRTYLEWYLQKPGQSPKVLIYKVSNRISGVPDRFSGSGSGTDFTLKISRVEAEDVGVYFCFQGSHVPYTFGQGTKVEIK | binding result [2]: binds
7 | binds | anti-FGF-8 neutralizing CDR-grafted antibody HV0LV6/CHO (antibody, V domains shown, HV.0 + LV.6; CHO/DG44 cell-derived; also called KM8034) VH: QVQLVQSGAEVKKPGASVKVSCKASGYTFTDYYLNWVRQAPGQGLEWMGEIDPGSDSIYYNENLEGRVTITADTSTSTAYMELSSLRSEDTAVYYCARYGYSRYDVRFVYWGQGTLVTVSS VL: DVVMTQSPLSLPVSLGEPASISCRSSQSLVHSNGRTYLEWYLQKPGQSPKVLIYKVSNRISGVPDRFSGSGSGTDFTLKISRVEAEDVGVYFCFQGSHVPYTFGQGTKVEIK | –
8 | – | anti-FGF-8 neutralizing CDR-grafted antibody HV0LV3-3/CHO (antibody, V domains shown, HV.0 + LV.3-3; CHO/DG44 cell-derived) VH: QVQLVQSGAEVKKPGASVKVSCKASGYTFTDYYLNWVRQAPGQGLEWMGEIDPGSDSIYYNENLEGRVTITADTSTSTAYMELSSLRSEDTAVYYCARYGYSRYDVRFVYWGQGTLVTVSS VL: DIVMTQSPLSLPVSLGEPASISCRSSQSLVHSNGRTYLEWYLQKPGQSPQVLIYKVSNRISGVPDRFSGSGSGTDFTLKISRVEAEDVGVYYCFQGSHVPYTFGQGTKVEIK | binding result [3]: binds; FGF-8 neutralizing activity (FGF-8-dependent growth of SC-3 cells), relative to KM3034 [4]: ~0.5 fold of KM3034
9 | binds | anti-FGF-8 neutralizing CDR-grafted antibody HV0LV4-2/CHO (antibody, V domains shown, HV.0 + LV.4-2; CHO/DG44 cell-derived) VH: QVQLVQSGAEVKKPGASVKVSCKASGYTFTDYYLNWVRQAPGQGLEWMGEIDPGSDSIYYNENLEGRVTITADTSTSTAYMELSSLRSEDTAVYYCARYGYSRYDVRFVYWGQGTLVTVSS VL: DVVMTQSPLSLPVSLGEPASISCRSSQSLVHSNGRTYLEWYLQKPGQSPQLLIYKVSNRISGVPDRFSGSGSGTDFTLKISRVEAEDVGVYFCFQGSHVPYTFGQGTKVEIK | –
10 | binds | anti-FGF-8 neutralizing CDR-grafted antibody HV0LV4-1/CHO (antibody, V domains shown, HV.0 + LV.4-1; CHO/DG44 cell-derived) VH: QVQLVQSGAEVKKPGASVKVSCKASGYTFTDYYLNWVRQAPGQGLEWMGEIDPGSDSIYYNENLEGRVTITADTSTSTAYMELSSLRSEDTAVYYCARYGYSRYDVRFVYWGQGTLVTVSS VL: DVVMTQSPLSLPVTPGEPASISCRSSQSLVHSNGRTYLEWYLQKPGQSPKVLIYKVSNRISGVPDRFSGSGSGTDFTLKISRVEAEDVGVYFCFQGSHVPYTFGQGTKVEIK | –
11 | binds | anti-FGF-8 neutralizing CDR-grafted antibody HV0LV3-2/CHO (antibody, V domains shown, HV.0 + LV.3-2; CHO/DG44 cell-derived) VH: QVQLVQSGAEVKKPGASVKVSCKASGYTFTDYYLNWVRQAPGQGLEWMGEIDPGSDSIYYNENLEGRVTITADTSTSTAYMELSSLRSEDTAVYYCARYGYSRYDVRFVYWGQGTLVTVSS VL: DIVMTQSPLSLPVSLGEPASISCRSSQSLVHSNGRTYLEWYLQKPGQSPQLLIYKVSNRISGVPDRFSGSGSGTDFTLKISRVEAEDVGVYFCFQGSHVPYTFGQGTKVEIK | –
12 | – | anti-FGF-8 neutralizing CDR-grafted antibody HV0LV4-3/CHO (antibody, V domains shown, HV.0 + LV.4-3; also called KM8035) VH: QVQLVQSGAEVKKPGASVKVSCKASGYTFTDYYLNWVRQAPGQGLEWMGEIDPGSDSIYYNENLEGRVTITADTSTSTAYMELSSLRSEDTAVYYCARYGYSRYDVRFVYWGQGTLVTVSS VL: DIVMTQSPLSLPVSLGEPASISCRSSQSLVHSNGRTYLEWYLQKPGQSPQVLIYKVSNRISGVPDRFSGSGSGTDFTLKISRVEAEDVGVYFCFQGSHVPYTFGQGTKVEIK | binding result [3]: binds; FGF-8 neutralizing activity (FGF-8-dependent growth of SC-3 cells), relative to KM3034 [4]: ~0.5 fold of KM3034
13 | binds | anti-FGF-8 neutralizing CDR-grafted antibody HV0LV2-2/CHO (antibody, V domains shown, HV.0 + LV.2-2; CHO/DG44 cell-derived) VH: QVQLVQSGAEVKKPGASVKVSCKASGYTFTDYYLNWVRQAPGQGLEWMGEIDPGSDSIYYNENLEGRVTITADTSTSTAYMELSSLRSEDTAVYYCARYGYSRYDVRFVYWGQGTLVTVSS VL: DVVMTQSPLSLPVTPGEPASISCRSSQSLVHSNGRTYLEWYLQKPGQSPQLLIYKVSNRISGVPDRFSGSGSGTDFTLKISRVEAEDVGVYFCFQGSHVPYTFGQGTKVEIK | –
14 | binds | anti-FGF-8 neutralizing CDR-grafted antibody HV0LV2-1/CHO (antibody, V domains shown, HV.0 + LV.2-1; CHO/DG44 cell-derived) VH: QVQLVQSGAEVKKPGASVKVSCKASGYTFTDYYLNWVRQAPGQGLEWMGEIDPGSDSIYYNENLEGRVTITADTSTSTAYMELSSLRSEDTAVYYCARYGYSRYDVRFVYWGQGTLVTVSS VL: DIVMTQSPLSLPVTPGEPASISCRSSQSLVHSNGRTYLEWYLQKPGQSPQVLIYKVSNRISGVPDRFSGSGSGTDFTLKISRVEAEDVGVYFCFQGSHVPYTFGQGTKVEIK | –
